Measured values taken from patent US20180118802A1.
Blank lines part the entries; values can stand above or below the substance they belong to.

Experiments:
8D6 CR12 (human) = 8D6 CR12 (human) (UniProt Q9NPF0); assay: solid-phase binding assay (FIG. 10)
[1] = biological target: CR pair used to test the MatRAP1 truncations (not named); assay: solid-phase binding assay of truncated variants (FIG. 9)
LRP2 CR89 (human) = LRP2 CR89 (human) (UniProt P98164); assay: solid-phase binding assay, CR protein coated, anti-RAP detection
LRP2 CR89 (human), sequence (P98164 1025-1102): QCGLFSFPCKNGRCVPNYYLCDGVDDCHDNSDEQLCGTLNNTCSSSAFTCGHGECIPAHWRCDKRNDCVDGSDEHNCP

8D6 CR12 (human), sequence (Q9NPF0 other isoform, or with tags, fused parts or gaps): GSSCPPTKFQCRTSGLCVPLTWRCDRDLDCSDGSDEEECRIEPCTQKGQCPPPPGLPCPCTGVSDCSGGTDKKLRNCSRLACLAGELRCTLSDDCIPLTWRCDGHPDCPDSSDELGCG
MatRAP1 N-42, sequence (P30533 other isoform, or with tags, fused parts or gaps): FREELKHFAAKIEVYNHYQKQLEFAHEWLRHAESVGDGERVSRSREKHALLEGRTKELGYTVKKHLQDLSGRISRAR

- fold improvement in affinity against the full-length variant (8D6 CR12 (human)): 3.5 fold
Substance: 320RAP1 truncated form (identical truncations, amino acids 243-313) (from UniProt P30533 277-347) (ligand)

- fold increase in affinity over the full-length d3 variant [1]: 3 fold
Substance: MatRAP1 N-42 (from UniProt P30533 277-353) (ligand)

- fold increase in affinity over MatRAP1 N-42 [1]: 4 fold
- fold increase in affinity over the full-length d3 variant [1]: 12 fold
Substance: MatRAP1 amino acids 243-313 (best truncated variant, 71 amino acids) (from UniProt P30533 277-347) (ligand)

- % max (LRP2 CR89 (human)): 35%
Substance: MegaRAP1 d3 Y249H (from UniProt P30533 235-353) (ligand)
